# Publication PMC7108423 (The International Journal of Biochemistry & Cell Biology, 2005)
# Like-named read-outs stand apart in the source and are kept apart here.
# B1: His-tagged SARS-CoV ME (endodomain of M protein, aa102-221) (domain or fragment)
# chain: FARTRSMWSFNPETNILLNVPLRGTIVTRPLMESELVIGAVIIRGHLRMAGHSLGRCDIKDLPKEITVATSRTLSYYKLGASQRVGTDSGFAAYNRYRIGNYKLNTDHAGSNDNIALLVQ
# Tests used:
# Assay in all cases: SPR
# [1] = molecular target: T1, recombinant SARS-CoV N protein (SARS coronavirus (SARS-CoV), UniProt P59595 1-422)
# T1 sequence (P59595 whole entry): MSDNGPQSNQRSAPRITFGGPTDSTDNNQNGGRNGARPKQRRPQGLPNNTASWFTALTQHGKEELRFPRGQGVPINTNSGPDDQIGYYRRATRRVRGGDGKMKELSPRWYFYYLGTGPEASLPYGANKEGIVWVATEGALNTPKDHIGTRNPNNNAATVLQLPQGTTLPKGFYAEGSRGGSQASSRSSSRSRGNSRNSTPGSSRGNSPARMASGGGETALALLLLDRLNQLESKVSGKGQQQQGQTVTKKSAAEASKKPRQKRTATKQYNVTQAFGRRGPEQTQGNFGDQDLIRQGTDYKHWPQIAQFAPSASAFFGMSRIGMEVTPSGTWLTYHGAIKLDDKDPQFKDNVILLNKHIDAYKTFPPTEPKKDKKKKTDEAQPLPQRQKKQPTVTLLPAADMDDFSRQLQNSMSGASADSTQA
# [2] = molecular target: T1, recombinant SARS-CoV N protein; remark: listed apart in the source
# [3] = molecular target: His-tagged N11 (aa283-422 of SARS-CoV N protein) (SARS coronavirus (SARS-CoV), UniProt P59595 283-422)
# Sequence of His-tagged N11 (aa283-422 of SARS-CoV N protein) (P59595 283-422): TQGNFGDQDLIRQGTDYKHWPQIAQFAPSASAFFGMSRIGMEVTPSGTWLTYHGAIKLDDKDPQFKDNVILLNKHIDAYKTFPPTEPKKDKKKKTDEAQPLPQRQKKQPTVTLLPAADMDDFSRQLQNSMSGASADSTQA
# [4] = molecular target: T1, recombinant SARS-CoV N protein; remark: listed apart in the source
Binder,Kd [1] [µM],Kd [2] [µM],Kd [3] [µM],Kd [4] [µM],koff [4] [s⁻¹],kon [4] [M⁻¹ s⁻¹]
B1,49.2,21.2,0.61 ± 0.06,0.55 ± 0.04,0.00223,4180
RYRIGNYKLNTDHAGSNDNIALLVQ [MCT peptide (residues 197-221 of SARS-CoV M protein)],–,–,–,75 ± 5,0.0394 ± 0.002,509 ± 42
